For experiment [1], the target named is Rh gH/gL-YFPC (rhesus lymphocryptovirus (Rh-LCV)). As to the kind of experiment: split reporter.
Experiment [2] addresses EBV gH/gL-YFPC (Epstein-Barr virus (EBV)) (UniProt P03231). As to the kind of experiment: split reporter.

This passage reports % YFP cells of cells stained for gB and gH/gL results from PMC3075949.

In experiment [1], “EBV gB-YFPN (from UniProt P03188 22-857) (natural protein)” yielded a % YFP cells of cells stained for gB and gH/gL of 68%. Turning to “EBV/Rh (456-628) gB-YFPN (from UniProt P03188 22-450; P03188 624-857)”, the % YFP cells of cells stained for gB and gH/gL in experiment [2] is 93%; in experiment [1], 72%. In turn, “EBV/Rh (456-807) gB-YFPN (from UniProt P03188 22-450; P03188 801-857)” gave a % YFP cells of cells stained for gB and gH/gL in experiment [1] of 79%.

For the substance “EBV/Rh (628-807) gB-YFPN (from UniProt P03188 22-622; P03188 801-857)”, in experiment [1], the % YFP cells of cells stained for gB and gH/gL came out at 59%.
